{"source": "patent CN114002427A", "about": "(dated 2022)", "binders": {"B1": {"name": "mAb#9 (antibody, V domains shown)", "VH": "EVQLVESGGGLVKPGGSLKLSCAASGITFSDYYMYWVRQTPEKRLEWVATISDGGSYTYYPDSVKGRFTISRDNAKNNLYLQMSSLKSEDTAMYYCVRDKSMGFGAWFAYWGQGTLVTVSA", "VL": "EIVLTQSPTTMAASPGEKITITCSASSSISSNYLHWYQQRPGFSPKLLIYRTSNLASGVPARFSGSGSGTSYSLTIGTMEAEDVATYYCQQGHSIPYTFGGGTKLEIK", "notes": "also called 新型冠状病毒核衣壳抗体(mAb#9); 第二新型冠状病毒核衣壳蛋白抗体"}}, "molecular_target": "T1, 新型冠状病毒核衣壳蛋白 (SARS-COV-2, UniProt P0DTC9 1-419)", "T1 construct": "also called SARS-COV-2 nucleocapsid protein; 新型冠状病毒核衣壳蛋白抗原", "assay": "ELISA screening of hybridomas for antigen-specific antibodies", "data": [{"binder": "B1", "values": [{"measurement": "binding result", "result": "binds"}]}]}
